Where a chain is given by its changes, count along the chain named.
B1: hAb6L3H2: humanized antibody of mAb6: hAb6VH2 (SEQ ID NO: 33) + hAb6VL3 (SEQ ID NO: 47), constant regions SEQ ID NO: 28/29 (antibody, V domains shown)
VH: EVQLVQSGAEVKKPGASVKVSCKASGYTFTDYYMNWVRQAPGQRLEWMGIINPYSGVTIYNHKFKGRVTLTVDKSANTAYMELSSLRSEDTAVYYCARQDSLLDYAMDYWGQGTTVTVSS
VL: DIQMTQSPSSLSASVGDRVTITCHASQGISGNMGWLQQKPGKSFKGLIYHGANLEDGVPSRFSGSGSGADYTLTISSLQPEDFATYYCVQYAQFPYTFGGGTKVEIK
modifications: constant regions SEQ ID 28/29; hAb6 VH2; hAb6 VL3
B2: hAb6L3H3: humanized antibody of mAb6: hAb6VH3 (SEQ ID NO: 34) + hAb6VL3 (SEQ ID NO: 47), constant regions SEQ ID NO: 28/29 (antibody, V domains shown)
VH: B1 VH with M48I, V68A
VL: B1 VL
modifications: constant regions SEQ ID 28/29; hAb6 VH3; hAb6 VL3
B3: hAb6L4H11: humanized antibody of mAb6: hAb6VH11 (SEQ ID NO: 42) + hAb6VL4 (SEQ ID NO: 48), constant regions SEQ ID NO: 28/29 (antibody, V domains shown)
VH: EVQLVQSGSELKKPGASVKVSCKASGYTFTDYYMNWVKQAPGQGLEWMGIINPYSGVTIYNHKFKGRFVLSVDKSSNTAYLQISSLKAEDTAVYYCARQDSLLDYAMDYWGQGTTVTVSS
VL: B1 VL with S43A, F44P, T85D
modifications: constant regions SEQ ID 28/29; hAb6VH11; hAb6 VL4
B4: hAb6L4H6: humanized antibody of mAb6: hAb6VH6 (SEQ ID NO: 37) + hAb6VL4 (SEQ ID NO: 48), constant regions SEQ ID NO: 28/29 (antibody, V domains shown)
VH: B3 VH with K38R
VL: B1 VL with S43A, F44P, T85D
modifications: constant regions SEQ ID 28/29; hAb6 VH6; hAb6 VL4
B5: hAb6L4H4: humanized antibody of mAb6: hAb6VH4 (SEQ ID NO: 35) + hAb6VL4 (SEQ ID NO: 48), constant regions SEQ ID NO: 28/29 (antibody, V domains shown)
VH: B1 VH with Q43K
VL: B1 VL with S43A, F44P, T85D
modifications: constant regions SEQ ID 28/29; hAb6 VH4; hAb6 VL4
B6: hAb6L4H13: humanized antibody of mAb6: hAb6VH13 (SEQ ID NO: 44) + hAb6VL4 (SEQ ID NO: 48), constant regions SEQ ID NO: 28/29 (antibody, V domains shown)
VH: B3 VH with V69A
VL: B1 VL with S43A, F44P, T85D
modifications: constant regions SEQ ID 28/29; hAb6VH13; hAb6 VL4
B7: hAb100L1H2 (antibody, human IgG1, kappa, V domains shown)
VH: EVQLVESGGGLVKPGGSLRLSCAASGFTFSDSGMHWIRQAPGKGLEWVAYISSGSSTIHYADTVKGRFTISRDNAKNSLYLQMNSLRAEDTAVYYCASPLYYYGRSYNAVAYWGQGTTVTVSS
VL: DIQMTQSPSSLSASVGDRVTITCHASQNINVWLSWYQQKPGKVPKLLIYKASDLHTGVPSRFSGSGSGTDFTLTISSLQPEDVATYYCQQGQSYPLTFGGGTKVEIKR
B8: M100CHI (antibody, human IgG1, kappa, V domains shown)
VH: B7 VH with R19K, G42E, S78T, Y80F, N84T, A88S, V93M, T118S
VL: B7 VL with T5N, V15L, R18T, V19I, K42N, V43I, D70G, V83I, V104L
notes: murine variable regions on human IgG1 / kappa constant regions; also called chimeric antibody of mAb100
B9: hAb100L1H4 (antibody, human IgG1, kappa, V domains shown)
VH: B7 VH with A109G
VL: B7 VL
B10: hAb100L1H3 (antibody, human IgG1, kappa, V domains shown)
VH: B7 VH with Y102H
VL: B7 VL
B11: hAb100L2H2 (antibody, human IgG1, kappa, V domains shown)
VH: B7 VH
VL: B7 VL with V43I
B12: hAb100L2H4 (antibody, human IgG1, kappa, V domains shown)
VH: B7 VH with A109G
VL: B7 VL with V43I
B13: hAb100L2H3 (antibody, human IgG1, kappa, V domains shown)
VH: B7 VH with Y102H
VL: B7 VL with V43I
B14: hAb100L2H1 (antibody, human IgG1, kappa, V domains shown)
VH: B7 VH with A49S
VL: B7 VL with V43I

What follows are molecules tested against T1, human DLL3 (Homo sapiens, UniProt Q9NYJ7) (assay: Biacore antibody affinity assay, human DLL3).
T1 construct: purchased ACRO DLL3-H52H4
T1 sequence (Q9NYJ7 27-492 limits assumed): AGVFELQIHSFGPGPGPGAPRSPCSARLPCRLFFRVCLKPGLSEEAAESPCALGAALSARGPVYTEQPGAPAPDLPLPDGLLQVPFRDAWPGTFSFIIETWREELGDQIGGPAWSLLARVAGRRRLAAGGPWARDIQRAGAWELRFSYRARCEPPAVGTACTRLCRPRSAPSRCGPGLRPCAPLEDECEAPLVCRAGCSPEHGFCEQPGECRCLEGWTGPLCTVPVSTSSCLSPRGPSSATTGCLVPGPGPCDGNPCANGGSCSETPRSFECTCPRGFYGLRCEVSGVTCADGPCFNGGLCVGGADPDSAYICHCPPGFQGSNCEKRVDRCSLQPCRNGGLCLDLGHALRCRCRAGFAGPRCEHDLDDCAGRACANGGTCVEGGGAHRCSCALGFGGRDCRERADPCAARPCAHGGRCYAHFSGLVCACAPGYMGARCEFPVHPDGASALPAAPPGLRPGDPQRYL
Format: binding
From the text: (§1) Test antibodies were affinity-captured with a Protein A biosensor chip (Cat. #29127556, Cytiva) for 18 seconds, and then the antigens human DLL3 (ACRO, DLL3-H52H4), cynomolgus monkey DLL3 (KACTUS, DLL-RM103), and mouse DLL3 (KACTUS, DLL-MM103) were allowed to flow over the surface of the chip for 180 seconds, followed by 600 seconds of dissociation. Reaction signals were detected in real time using a Biacore 8K (Cytiva) instrument to obtain association and dissociation curves. After the dissociation in each experimental cycle, the biosensor chip was washed and regenerated with a 10 mM glycine-hydrochloric acid solution (pH 1.5) (Cat. #BR-1003-54, Cytiva). A 1:1 model was fit to the data. The results are shown in Table 12-1, Table 12-2, and Table 12-3.
With B1 the “ka” value was 716000 M⁻¹ s⁻¹ and the “kd” value was 0.00114 s⁻¹. B2 was tested, and the “ka” value was 718000 M⁻¹ s⁻¹ and the “kd” value was 0.00135 s⁻¹. With B3 the “ka” value was 2.14e+06 M⁻¹ s⁻¹ and the “kd” value was 0.000672 s⁻¹. B4 was tested, and the “ka” value was 1.91e+06 M⁻¹ s⁻¹ and the “kd” value was 0.000811 s⁻¹. For B5, the “ka” value was 743000 M⁻¹ s⁻¹ and the “kd” value was 0.00108 s⁻¹. In the case of B6, the “ka” value is reported as 2.16e+06 M⁻¹ s⁻¹ and the “kd” value is reported as 0.000695 s⁻¹.

What follows are molecules tested against T2, human DLL3 (ACRO, DLL3-H52H4) (human, UniProt Q9NYJ7 27-479) (assay: SPR (Biacore 8K), antibody captured on Protein A chip, 1:1 fit).
T2 construct: bought antigen of the Biacore assay; construct not described
T2 sequence (looked up): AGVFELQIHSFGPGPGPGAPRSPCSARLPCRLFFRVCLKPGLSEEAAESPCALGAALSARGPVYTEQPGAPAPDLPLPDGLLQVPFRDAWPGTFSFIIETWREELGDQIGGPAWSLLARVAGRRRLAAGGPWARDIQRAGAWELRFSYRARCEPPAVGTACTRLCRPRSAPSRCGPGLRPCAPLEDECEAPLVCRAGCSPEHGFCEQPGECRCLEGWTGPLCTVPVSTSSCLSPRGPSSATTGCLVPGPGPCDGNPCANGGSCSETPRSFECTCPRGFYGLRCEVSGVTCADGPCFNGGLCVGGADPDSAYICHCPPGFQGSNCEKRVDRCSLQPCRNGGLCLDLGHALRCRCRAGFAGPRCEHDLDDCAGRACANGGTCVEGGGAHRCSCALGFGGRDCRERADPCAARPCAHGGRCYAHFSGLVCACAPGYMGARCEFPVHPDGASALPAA
From the text: as §1
Work on B7 yielded a Kd of 0.467 nM, a koff of 0.000365 s⁻¹ and a kon of 781000 M⁻¹ s⁻¹. For B8, the Kd was 0.528 nM, the koff was 0.000546 s⁻¹ and the kon was 1.03e+06 M⁻¹ s⁻¹. In the case of B9, the Kd is reported as 0.729 nM, the koff is reported as 0.000254 s⁻¹ and the kon is reported as 348000 M⁻¹ s⁻¹. B10 was tested, and the Kd was 0.424 nM, the koff was 0.000352 s⁻¹ and the kon was 832000 M⁻¹ s⁻¹. With B11 the Kd was 0.437 nM, the koff was 0.00037 s⁻¹ and the kon was 848000 M⁻¹ s⁻¹. For B12, the Kd was 1 nM, the koff was 0.000655 s⁻¹ and the kon was 652000 M⁻¹ s⁻¹. B13 gave a Kd of 0.664 nM, a koff of 0.000268 s⁻¹ and a kon of 404000 M⁻¹ s⁻¹. For B14, the Kd was 1.1 nM, the koff was 0.000629 s⁻¹ and the kon was 572000 M⁻¹ s⁻¹.

What follows are molecules tested against T3, Human DLL3 full-length protein on cells (human, UniProt Q9NYJ7 27-618) (assay: FACS on DLL3/H82 cells).
T3 construct: H1184 and DMS53 express DLL3 themselves; The cell line is named under assay; also called H1184 cells; DLL3/H82
T3 sequence: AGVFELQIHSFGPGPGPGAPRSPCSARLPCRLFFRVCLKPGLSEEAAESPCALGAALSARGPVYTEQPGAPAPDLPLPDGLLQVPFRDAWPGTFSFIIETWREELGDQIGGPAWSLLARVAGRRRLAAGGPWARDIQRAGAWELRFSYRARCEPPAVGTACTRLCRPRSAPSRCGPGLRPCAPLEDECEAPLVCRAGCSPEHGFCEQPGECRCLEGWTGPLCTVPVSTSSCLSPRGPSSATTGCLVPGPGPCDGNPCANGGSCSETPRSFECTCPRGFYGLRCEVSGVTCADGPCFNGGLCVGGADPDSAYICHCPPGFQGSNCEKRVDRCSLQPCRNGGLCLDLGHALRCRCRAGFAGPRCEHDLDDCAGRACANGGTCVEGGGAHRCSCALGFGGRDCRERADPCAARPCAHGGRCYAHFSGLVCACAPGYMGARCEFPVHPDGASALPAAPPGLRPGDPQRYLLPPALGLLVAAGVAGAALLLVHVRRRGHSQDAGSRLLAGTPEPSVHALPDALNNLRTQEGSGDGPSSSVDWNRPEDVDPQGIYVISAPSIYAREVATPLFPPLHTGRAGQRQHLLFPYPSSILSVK
Description: Cells of the DLL3-expressing small cell lung cancer cell lines H1184 (ATCC, Cat. No. CRL-5858), DLL3/H82, cynoDLL3/CHO-s, and RatDLL3/CHO-s were suspended at 1×10^6/mL in FACS buffer (1% BSA+pH 7.4 PBS), and the cell suspensions were added to a 96-well round-bottom plate (Corning, 3795) at 100 μL/well. The plate was centrifuged at 300 g for 5 min, and the supernatant was removed. Different concentrations of test antibodies were added at 100 μL/well. The plate was incubated in the dark in a refrigerator at 4° C. for 1 h. After 3 washes by centrifugation at 300 g, working concentrations of APC anti-human IgG Fc (BioLegend, 410712) or PE F(ab′)2-goat anti-human IgG (invitrogen, H10104) were added. The plate was incubated in the dark in a refrigerator at 4° C. for 40 min. After 3 washes by centrifugation at 300 g, the geometric mean fluorescence intensity was measured on an Invitrogen flow cytometer, and the EC50 values of the antibodies in binding to DLL3-expressing cells were calculated.
For B7, the EC50 was 0.3 nM and the Emax was 14800. B8 gave an EC50 of 0.25 nM and an Emax of 13500. B9 showed an EC50 of 0.22 nM and an Emax of 14900. For B10, the EC50 was 0.25 nM and the Emax was 14900. B11 was tested, and the EC50 was 0.16 nM and the Emax was 14800. Work on B12 yielded an EC50 of 0.32 nM and an Emax of 13200. B13 gave an EC50 of 0.3 nM and an Emax of 14800. B14 gave an EC50 of 0.29 nM and an Emax of 14400.
